Tests used:
[1] = biological target: murine IL-6 (mouse) (UniProt P08505)
[2] = biological target: murine IL-6 (mouse) (UniProt P08505); remark: listed apart in the source
[3] = biological target: the molecule itself; test: SDS-PAGE under non-reducing and reducing conditions; purified mIL-6-RFP-Fc on 7.5% SDS/PAGE, Coomassie staining and Western blotting; disulfide-linked dimer versus monomer

Sequence of murine IL-6 (mouse) (P08505 25-211): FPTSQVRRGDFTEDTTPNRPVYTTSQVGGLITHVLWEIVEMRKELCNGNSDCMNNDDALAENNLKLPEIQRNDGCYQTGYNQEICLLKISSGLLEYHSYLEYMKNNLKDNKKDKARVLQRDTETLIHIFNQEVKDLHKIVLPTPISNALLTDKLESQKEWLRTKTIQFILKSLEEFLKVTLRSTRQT

IC50 of inhibition of IL-6 (37 pM)-dependent proliferation of Ba/F3-mgp130/mIL-6Rα cells, serial 2-fold dilutions from 3.9 nM, XTT assay after 60 h [1]: 3.3e-05 μM
attenuation of IL-6 (100 ng i.v.)-induced ERK1/2 phosphorylation in mouse kidney after pretreatment with mIL-6-RFP-Fc i.p. for 45 min (4, 12 or 40 μg; value for 40 μg, 70× molar excess) [2]: 50%
attenuation of IL-6 (100 ng i.v.)-induced ERK1/2 phosphorylation in mouse liver after pretreatment with mIL-6-RFP-Fc i.p. for 45 min (4, 12 or 40 μg; value for 40 μg, 70× molar excess) [2]: 63%
attenuation of IL-6 (100 ng i.v.)-induced STAT3 phosphorylation in mouse kidney after pretreatment with mIL-6-RFP-Fc i.p. for 45 min (4, 12 or 40 μg; value for 40 μg, 70× molar excess) [2]: 80%
attenuation of IL-6 (100 ng i.v.)-induced STAT3 phosphorylation in mouse liver after pretreatment with mIL-6-RFP-Fc i.p. for 45 min (4, 12 or 40 μg; value for 40 μg, 70× molar excess) [2]: 12%
B1: mIL-6-RFP-Fc (murine IL-6 receptor fusion protein with engineered mIgG2a Fc-fragment and 3V5-3HA tag) (Fc fusion)
chain: QLLEPCGYIYPEFPVVQRGSNFTAICVLKEACLQHYYVNASYIVWKTNHAAVPREQVTVINRTTSSVTFTDVVLPSVQLTCNILSFGQIEQNVYGVTMLSGFPPDKPTNLTCIVNEGKNMLCQWDPGRETYLETNYTLKSEWATEKFPDCQSKHGTSCMVSYMPTYYVNIEVWVEAENALGKVSSESINFDPVDKVKPTPPYNLSVTNSEELSSILKLSWVSSGLGGLLDLKSDIQYRTKDASTWIQVPLEDTMSPRTSFTVQDLKPFTEYVFRIRSIKDSGKGYWSDWSEEASGTTYEDLVLGSCRALEVANGTVTSLPGATVTLICPGKEAAGNVTIHWVYSGSQNREWTTTGNTLVLRDVQLSDTGDYLCSLNDHLVGTVPLLVDVPPEEPKLSCFRKNPLVNAICEWRPSSTPSPTTKAVLFAKKINTTNGKSDFQVPCQYSQQLKSFSCQVEILEGDKVYHIVSLCVANSVGSKSSHNEAFHSLKMVQPDPPANLVVSAIPGRPRWLKVSWQHPETWDPSYYLLQFQLRYRPVWSKEFTVLLLPVAQYQCVIHDALRGVKHVVQVRGKEELDLGQWSEWSPEVTGTPWIPRGPTIKPCPPCKCPAPNLEGGPSVFIFPPKIKDVLMISLSPIVTCVVVDVSEDDPDVQISWFVNNVEVHTAQTQTHREDYNSTLRVVSALPIQHQDWMSGKAFACAVNNKDLPAPIERTISKPKGSVRAPQVYVLPPPEEEMTKKQVTLTCMVTDFMPEDIYVEWTNNGKTELNYKNTEPVLDSDGSYFMYSKLRVEKKNWVERNSYSCSVVHEGLHNHHTTKSFSRTPGK
stoichiometry N [3]: 2

— article PMC4589789, “Anti-interleukin-6 therapy through application of a monogenic protein inhibitor via gene delivery” (Scientific Reports, 2015)
